# Laboratory results as given in publication PMC9907809, “Conformational rearrangements in the sensory RcsF/OMP complex mediate signal transduction across the bacterial cell envelope” (PLOS Genetics, 2023).
# T1: OmpA ( (endogenous in the host …, UniProt P0A910 22-346))
# T1 construct: OmpA, outer membrane protein; source: endogenous, in cells / DDM-solubilized membrane fraction
# T1 sequence (looked up): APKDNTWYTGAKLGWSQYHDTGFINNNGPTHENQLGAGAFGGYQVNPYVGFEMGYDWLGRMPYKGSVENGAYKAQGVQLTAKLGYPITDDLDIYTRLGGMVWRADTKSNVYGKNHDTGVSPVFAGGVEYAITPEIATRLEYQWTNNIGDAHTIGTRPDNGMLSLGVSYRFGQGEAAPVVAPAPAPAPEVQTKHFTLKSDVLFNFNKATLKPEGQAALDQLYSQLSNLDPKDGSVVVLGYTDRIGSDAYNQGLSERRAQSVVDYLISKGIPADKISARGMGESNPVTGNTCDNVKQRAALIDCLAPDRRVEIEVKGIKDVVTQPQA
# B1: RcsF(A55V), OM version (natural protein, UniProt P69411 16-134, looked up)
# chain: CSMLSRSPVEPVQSTAPQPKAEPAKPKAPRATPVRIYTNVEELVGKPFRDLGEVSGDSCQASNQDSPPSIPTARKRMQINASKMKANAVLLHSCEVTSGTPGCYRQAVCIGSALNITAK
# modifications: lipidated N-terminal cysteine (residue 16)
# notes: RcsF, sensory outer membrane lipoprotein; mature RcsF = residues 16-134 (NTD 16-48, CTD 49-134); also called GOF[OM] variant; source: expressed from the low copy number vector pZS21 in a ΔrcsF strain; in cells
# Target: T1, OmpA
# Test: cross-linking; in vivo formaldehyde crosslinking; OM version of RcsF variants with endogenous OmpA (and BamA); immunoblot of whole cell lysates probed with α-RcsF, RcsF/OmpA band quantified relative to the WT
# Conditions: partners not purified
binder,measurement,value
B1,percent decrease of RcsF/OmpA complex relative to WT,50%
